Assay results published in PMC4176424, “Thiolation-enhanced substrate recognition by D-alanyl carrier protein ligase DltA from Bacillus cereus” (F1000Research, 2014).

How the values were obtained:
[1] = target: BcDltA (D-alanyl carrier protein ligase DltA) (Bacillus cereus, UniProt Q81G39); assay: biochemical
C[C@@H](N)C(=O)O = assay: purified protein; conditions: 5 mM ATP, 5 mM CoA, 10 mM MgCl2, 0.1 M KCl, pH 7.2
From the text: pyrophosphate release, pyrophosphatase-coupled malachite green assay on BcDltA (D-alanyl carrier protein ligase DltA)

Sequence of BcDltA (D-alanyl carrier protein ligase DltA) (Q81G39 whole entry): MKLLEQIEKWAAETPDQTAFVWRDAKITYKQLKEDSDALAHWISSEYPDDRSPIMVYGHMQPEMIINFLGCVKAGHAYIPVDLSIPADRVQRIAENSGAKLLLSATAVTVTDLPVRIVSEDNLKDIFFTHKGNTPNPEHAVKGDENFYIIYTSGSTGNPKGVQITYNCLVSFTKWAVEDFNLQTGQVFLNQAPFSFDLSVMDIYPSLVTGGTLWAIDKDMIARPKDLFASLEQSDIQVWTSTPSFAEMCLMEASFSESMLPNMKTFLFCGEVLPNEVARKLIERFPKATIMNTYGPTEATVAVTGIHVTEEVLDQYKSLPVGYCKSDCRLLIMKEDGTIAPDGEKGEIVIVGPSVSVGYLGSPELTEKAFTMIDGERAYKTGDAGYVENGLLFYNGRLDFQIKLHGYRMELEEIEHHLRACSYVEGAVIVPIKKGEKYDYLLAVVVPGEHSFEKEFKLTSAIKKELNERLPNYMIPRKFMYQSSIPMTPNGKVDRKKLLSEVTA

Molecule	Kd [1]	Km (C[C@@H](N)C(=O)O)	kcat (C[C@@H](N)C(=O)O)	kcat/Km (C[C@@H](N)C(=O)O)
Nc1ncnc2c1ncn2[C@@H]1O[C@H](COP(=O)(O)OP(=O)(O)OP(=O)(O)O)[C@@H](O)[C@H]1O [ATP]	430 µM			
BcDltA (D-alanyl carrier protein ligase DltA) (Bacillus cereus ATCC 14579)		0.03 ± 0.01 × 10^-3 M	0.182 ± 0.00333 s⁻¹	6050 ± 1670 M⁻¹ s⁻¹
